In the experiment the target is RGD-binding integrins on HeLa cells (α5β1, αvβ5, αvβ3) (human (endogenous in HeLa)). Put plainly: resonant waveguide grating (RWG) live-cell competitive adhesion assay; sensor coated with 50% PPR (RGD peptide); HeLa cells (8000 per well) with soluble S1 or BSA in HEPES-HBSS, 90 min; normalised adhesion fitted with a sigmoidal curve; Kd calculated from the IC50 with [RGD] 2.39 µM and Kd^RGD 9.4 µM.

Our source for the IC50 and Kd values is paper PMC12384205.

Consider “recombinant human coronavirus SARS-CoV-2 Spike Glycoprotein S1 (Active)”, for which the 50% inhibitory concentration (IC50) was 1400 nM and the dissociation constant Kd was 1120 nM.

A word on the IC50: it is the concentration that inhibits the measured activity by half. Broadly, the Kd is the equilibrium constant for the complex coming apart.
